This data set concerns the molecule itself. In words: native gel or EMSA; His-tagged association domains purified from HeLa cells, incubated in 25 mM HEPES pH 7.3, 50 mM KCl, 1 mM DTT for 1 hour at 37°C; native-PAGE, silver staining. (In general: Mobility shift assays separate free from complexed probe on a gel.)

B1: His-tagged association domain of CaMKIIα, wild type (domain or fragment, rat, UniProt P11275 345-478, looked up)
chain: VRKQEIIKVTEQLIEAISNGDFESYTKMCDPGMTAFEPEALGNLVEGLDFHRFYFENLWSRNSKPVHTTILNPHIHLMGDESACIAYIRITQYLDAGGIPRTAQSEETRVWHRRDGKWQIVHFHRSGAPSVLPH
notes: association domain of CaMKIIα, rat, 345-end; Printed molecular weight of the His-tagged domain: 19,800; The limits 345-end are stated for the library fragment; they are not restated for the HeLa expression construct; also called AD WT; source: HeLa, transfected, purified (Ni-Sepharose)
Turning to B1, the binding result is given as “binds”.
